Source: patent US20120207760A1

Legend:
[1] = target: hemagglutinin (HA) of influenza A/Wisconsin/67/05 H3N2 (Influenza A virus A/Wisconsin/67/2005 (H3N2)); experiment: ELISA, inactivated whole virions coated; transfection supernatant set 1
[2] = target: hemagglutinin (HA) of influenza A/Solomon Islands/3/06 H1N1 (Influenza A virus A/Solomon Islands/3/2006 (H1N1)); experiment: as above
[3] = target: hemagglutinin (HA) of influenza A/Wisconsin/67/05 H3N2 (Influenza A virus A/Wisconsin/67/2005 (H3N2)); experiment: ELISA, inactivated whole virions coated; transfection supernatant set 5
[4] = target: hemagglutinin (HA) of influenza A/Solomon Islands/3/06 H1N1 (Influenza A virus A/Solomon Islands/3/2006 (H1N1)); experiment: as above
[5] = target: hemagglutinin (HA) of influenza A/Wisconsin/67/05 H3N2 (Influenza A virus A/Wisconsin/67/2005 (H3N2)); experiment: ELISA, inactivated whole virions coated; transfection supernatant set 3
[6] = target: hemagglutinin (HA) of influenza A/Solomon Islands/3/06 H1N1 (Influenza A virus A/Solomon Islands/3/2006 (H1N1)); experiment: as above
[7] = target: hemagglutinin (HA) of influenza A/Japan/305/57 H2N2 (Influenza A virus A/Japan/305/1957 (H2N2)) (UniProt P03451); experiment: as above
[8] = target: recombinant soluble homotrimeric HA of A/northern shoveler/California/HKWF115/2007 - H6N1 (Influenza A virus A/northern shoveler/California/HKWF115/2007 (H6N1)); experiment: micro-array; captured IgG, V5-tagged trimeric HA
[9] = target: recombinant soluble homotrimeric HA of A/Netherlands/219/03 - H7N7 (Influenza A virus A/Netherlands/219/03 (H7N7)); experiment: micro-array; captured IgG, V5-tagged trimeric HA
[10] = target: recombinant soluble homotrimeric HA of A/Anhui/1/05 - H5N1 (Influenza A virus A/Anhui/1/2005 (H5N1)); experiment: micro-array; captured IgG, V5-tagged trimeric HA
[11] = target: recombinant soluble homotrimeric HA of A/chicken/Vietnam/NCVD-016/08 - H5N1 (Influenza A virus A/chicken/Vietnam/NCVD-016/2008 (H5N1)); experiment: micro-array; captured IgG, V5-tagged trimeric HA
[12] = target: recombinant soluble homotrimeric HA of A/Egypt/3300-NAMRU3/08 - H5N1 (Influenza A virus A/Egypt/3300-NAMRU3/2008 (H5N1)); experiment: micro-array; captured IgG, V5-tagged trimeric HA
[13] = target: recombinant soluble homotrimeric HA of A/duck/Yangzhou/02/2005 - H8N4 (Influenza A virus A/duck/Yangzhou/02/2005 (H8N4)); experiment: micro-array; captured IgG, V5-tagged trimeric HA
[14] = target: recombinant soluble homotrimeric HA of A/Hong Kong/156/97 - H5N1 (Influenza A virus A/Hong Kong/156/97 (H5N1)); experiment: micro-array; captured IgG, V5-tagged trimeric HA
[15] = target: recombinant homotrimeric HA, A/northern shoveler/California/HKWF115/07 (Influenza A virus A/northern shoveler/California/HKWF115/2007 (H6N1)); experiment: trimeric HA microarray, transfection set 2
[16] = target: recombinant homotrimeric HA, A/Egypt/3300-NAMRU3/08 H5N1 (Influenza A virus A/Egypt/3300-NAMRU3/08 (H5N1)); experiment: trimeric HA microarray, transfection set 2
[17] = target: recombinant homotrimeric HA, A/South Carolina/1/18 H1N1 (Influenza A virus A/South Carolina/1/18 (H1N1)); experiment: trimeric HA microarray, transfection set 2
[18] = target: recombinant homotrimeric HA, A/Solomon Islands/3/06 H1N1 (Influenza A virus A/Solomon Islands/3/06 (H1N1)); experiment: trimeric HA microarray, transfection set 2
[19] = target: recombinant homotrimeric HA, A/swine/Ontario/01911-2/99 H4N6 (Influenza A virus A/swine/Ontario/01911-2/99 (H4N6)); experiment: trimeric HA microarray, transfection set 2
[20] = target: recombinant homotrimeric HA, A/common magpie/Hong Kong/5052/07 H5N1 (Influenza A virus A/common magpie/Hong Kong/5052/07 (H5N1)); experiment: trimeric HA microarray, transfection set 2
[21] = target: recombinant homotrimeric HA, A/Indonesia/5/05 H5N1 (Influenza A virus A/Indonesia/5/05 (H5N1)); experiment: trimeric HA microarray, transfection set 2
[22] = target: recombinant homotrimeric HA, A/Hong Kong/1073/99 H9N2 (Influenza A virus A/Hong Kong/1073/99 (H9N2)); experiment: trimeric HA microarray, transfection set 2
[23] = target: recombinant homotrimeric HA, A/Netherlands/219/03 H7N7 (Influenza A virus A/Netherlands/219/03 (H7N7)); experiment: trimeric HA microarray, transfection set 2
[24] = target: recombinant homotrimeric HA, A/California/4/09 H1N1 (Influenza A virus A/California/4/09 (H1N1)); experiment: trimeric HA microarray, transfection set 2
[25] = target: recombinant homotrimeric HA, A/Anhui/1/05 H5N1 (Influenza A virus A/Anhui/1/05 (H5N1)); experiment: trimeric HA microarray, transfection set 2
[26] = target: recombinant homotrimeric HA, A/chicken/Vietnam/NCVD-016/08 H5N1 (Influenza A virus A/chicken/Vietnam/NCVD-016/08 (H5N1)); experiment: trimeric HA microarray, transfection set 2
[27] = target: recombinant homotrimeric HA, A/Japan/305/57 H2N2 (Influenza A virus A/Japan/305/57 (H2N2)); experiment: trimeric HA microarray, transfection set 2
[28] = target: recombinant homotrimeric HA, A/duck/Yangzhou/02/05 H8N4 (Influenza A virus A/duck/Yangzhou/02/2005 (H8N4)); experiment: trimeric HA microarray, transfection set 2
[29] = target: recombinant homotrimeric HA, A/Wisconsin/67/05 H3N2 (Influenza A virus A/Wisconsin/67/05 (H3N2)); experiment: trimeric HA microarray, transfection set 2
[30] = target: recombinant homotrimeric HA, A/Hong Kong/2108/03 H9N2 (Influenza A virus A/Hong Kong/2108/03 (H9N2)); experiment: trimeric HA microarray, transfection set 2
[31] = target: recombinant homotrimeric HA, A/Vietnam/1203/04 H5N1 (Influenza A virus A/Vietnam/1203/04 (H5N1)); experiment: trimeric HA microarray, transfection set 2

**Q.** Which results are given for TCN-202 (2N9) (antibody)?
**A.** OD450 [1]: 0.07 OD450; OD450 [2]: 0.07 OD450; OD450 [3]: 0.07 OD450; OD450 [4]: 0.07 OD450; OD450 [5]: 0.08 OD450; OD450 [6]: 0.1 OD450; OD450 [7]: 0.08 OD450; Trimeric HA Binding: RLU [8]: 3040 RLU; Trimeric HA Binding: RLU [9]: 18000 RLU; Trimeric HA Binding: RLU [10]: 10000 RLU; Trimeric HA Binding: RLU [11]: 2570 RLU; Trimeric HA Binding: RLU [12]: 13900 RLU; Trimeric HA Binding: RLU [13]: 13800 RLU; Trimeric HA Binding: RLU [14]: 945 RLU; Trimeric HA Binding RLU [15]: 30 RLU; Trimeric HA Binding RLU [16]: 18 RLU; Trimeric HA Binding RLU [17]: 195 RLU; Trimeric HA Binding RLU [18]: 16 RLU; Trimeric HA Binding RLU [19]: 15 RLU; Trimeric HA Binding RLU [20]: 11 RLU; Trimeric HA Binding RLU [21]: 8 RLU; Trimeric HA Binding RLU [22]: 33 RLU; Trimeric HA Binding RLU [23]: 26 RLU; Trimeric HA Binding RLU [24]: 52 RLU; Trimeric HA Binding RLU [25]: 9 RLU; Trimeric HA Binding RLU [26]: 22 RLU; Trimeric HA Binding RLU [27]: 32 RLU; Trimeric HA Binding RLU [28]: 19 RLU; Trimeric HA Binding RLU [29]: 46 RLU; Trimeric HA Binding RLU [30]: 7 RLU; Trimeric HA Binding RLU [31]: 121 RLU
